Assay results reported in patent US20080076731A1 (UNIVERSITY OF SOUTH FLORIDA, published 2008).

Molecular target: T1, SH2-containing inositol-5-phosphatase (SHIP), mouse, endogenous protein in NK cell lysates (mouse, UniProt Q9ES52 1-1191, limits assumed)
T1 construct: Endogenous protein co-immunoprecipitated from NK-enriched C57BL6/J splenocyte lysates (modified RIPA buffer) and detected by Western blot with anti-SHIP P2C6; also called SH2-containing Inositol Polyphosphatase; 135/145 kD SHIP isoforms
T1 sequence (looked up): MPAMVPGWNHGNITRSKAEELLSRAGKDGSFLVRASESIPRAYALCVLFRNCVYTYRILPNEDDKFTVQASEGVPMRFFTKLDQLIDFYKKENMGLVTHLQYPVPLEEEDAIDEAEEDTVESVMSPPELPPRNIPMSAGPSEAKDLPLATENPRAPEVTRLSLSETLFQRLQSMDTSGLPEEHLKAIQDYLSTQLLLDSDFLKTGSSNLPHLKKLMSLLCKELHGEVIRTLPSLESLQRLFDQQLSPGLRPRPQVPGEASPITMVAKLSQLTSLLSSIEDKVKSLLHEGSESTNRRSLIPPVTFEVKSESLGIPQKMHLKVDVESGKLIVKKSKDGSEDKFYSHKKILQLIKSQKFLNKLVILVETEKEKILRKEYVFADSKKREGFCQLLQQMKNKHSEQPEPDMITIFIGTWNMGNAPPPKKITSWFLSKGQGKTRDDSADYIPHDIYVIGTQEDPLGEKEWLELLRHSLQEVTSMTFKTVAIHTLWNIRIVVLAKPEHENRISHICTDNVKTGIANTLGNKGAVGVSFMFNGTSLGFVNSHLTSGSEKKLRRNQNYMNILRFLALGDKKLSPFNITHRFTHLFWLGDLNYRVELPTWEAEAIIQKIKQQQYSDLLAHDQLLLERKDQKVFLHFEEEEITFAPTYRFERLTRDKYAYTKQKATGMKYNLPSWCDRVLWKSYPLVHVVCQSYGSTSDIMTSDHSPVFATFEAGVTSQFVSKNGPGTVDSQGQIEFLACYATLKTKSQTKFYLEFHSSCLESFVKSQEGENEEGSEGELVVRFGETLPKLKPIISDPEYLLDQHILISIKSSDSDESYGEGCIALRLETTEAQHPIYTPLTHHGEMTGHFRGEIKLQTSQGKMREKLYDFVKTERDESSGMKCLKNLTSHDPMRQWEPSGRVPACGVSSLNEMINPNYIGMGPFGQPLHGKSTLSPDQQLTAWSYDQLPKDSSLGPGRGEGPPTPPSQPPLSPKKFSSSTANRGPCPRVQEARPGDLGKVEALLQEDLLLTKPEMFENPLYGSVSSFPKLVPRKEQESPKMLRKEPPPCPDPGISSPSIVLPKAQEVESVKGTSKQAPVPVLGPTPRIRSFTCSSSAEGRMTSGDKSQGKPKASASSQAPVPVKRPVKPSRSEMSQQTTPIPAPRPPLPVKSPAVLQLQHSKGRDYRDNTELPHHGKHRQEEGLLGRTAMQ
Assay: co-immunoprecipitation from NK-enriched splenocyte lysates, Western blot with anti-SHIP P2C6
Source text: Equal quantities of protein from cells lysates prepared from SHIP^{+/+} and SHIP^{-/-} NK cells are resolved on a 4-12% Tris-Bis polyacrylamide gel (Invitrogen), transferred to a nitrocellulose membrane (Amersham) and the filters probed with an anti-Akt-P(Threo) antibody (Cell Signaling) at a 1:1000 dilution. […] The blot is then stripped and reprobed in a similar manner using an anti-β-actin antibody (Cell Signaling) as an internal control for protein loading.
Thus, in FIG. 5, SHIP is shown to be recruited to NK inhibitory receptors and to oppose Akt activation in vivo. […] A mock immunoprecipitation of the NK lysates with an IgG2a antibody is analyzed in parallel as a negative control. The results of these immunoprecipitations are representative of two independent analyses of NK-enriched splenocytes. […] Immunoprecipitation of SHIP from NK cell lysates serves as positive control in both (A) and (B). In (A) a one-tenth exposure of the SHIP lane enables the 135/145 kD SHIP isoforms to be distinguished clearly. […] To control for the amount of cell lysate loaded in each sample, the Akt-P blot is stripped and re-probed with an antibody specific for β-actin, GAPDH, and cc tubulin. […] Immunoprecipitation with a murine IgG2a antibody (IgG2a) is analyzed as a negative control and SHIP is immunoprecipitated as a positive control. […]

B1: Ly49G2, mouse NK inhibitory receptor (receptor, UniProt Q60654-2 1-267, looked up)
chain: MSEQEVTYSTVRFHESSRLQKLVRTEEPQRPREACYREYSVPWKLIVIACGILCFLLLVTVALLAITIFQHSQQKHELQETLNCHDNCSPTQSDVNLKDELLRNKSIECRPGNDLLESLSRDQNRWYSETKTFSDSSQHTGRGFEKYWFCYGIKCYYFNMDRKTWSGCKQTCQISSLSLLKIDNEDELKFLQNLAPSDISWIGLSYDNKKKDWVWIDNGPSKLALNTTKYNIRDGLCMSLSKTRLDNGDCDKSYICICGKRLDKFPH
notes: Immunoprecipitated with anti-Ly49G2 (4D11)
  binding result: no binding
